Experimental data from US20190300616A1.

Tests used:
[1] = biological target: Pngase F-treated rhIL13Rα2hFc (human) (UniProt Q14627); assay: plate-bound ELISA, Pngase F-treated rhIL13Rα2hFc
[2] = biological target: recombinant human IL13Rα2hFc chimera (human) (UniProt Q14627); assay: SPR, Biacore 3000; mAb immobilized, rhIL13Rα2 injected; 1:1 model
[3] = biological target: human wild-type IL13Rα2 expressed on the cell surface (human) (UniProt Q14627); assay: flow cytometry (APC-A), N10 glioma cells
human wild-type IL13Rα2 expressed on the cell surface (human), sequence (Q14627 27-380): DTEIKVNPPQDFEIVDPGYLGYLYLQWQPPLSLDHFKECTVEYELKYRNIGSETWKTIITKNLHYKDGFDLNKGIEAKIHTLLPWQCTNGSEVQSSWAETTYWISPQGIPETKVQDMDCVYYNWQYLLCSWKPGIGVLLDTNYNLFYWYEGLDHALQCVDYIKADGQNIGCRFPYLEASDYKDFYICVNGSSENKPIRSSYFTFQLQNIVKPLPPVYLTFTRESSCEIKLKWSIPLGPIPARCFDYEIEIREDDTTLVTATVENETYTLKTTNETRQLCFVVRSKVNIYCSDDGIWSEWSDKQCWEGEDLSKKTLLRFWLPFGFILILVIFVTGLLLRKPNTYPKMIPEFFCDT

[4] = biological target: human wild-type IL13Rα2 expressed on the cell surface (human) (UniProt Q14627); assay: flow cytometry (APC-A), N10 glioma cells pre-incubated with 10x excess rhIL13, then mIgG
[5] = biological target: recombinant human IL13Rα2hFc chimera (human) (UniProt Q14627); assay: plate-bound ELISA on rhIL13Rα2hFc

recombinant human IL13Rα2hFc chimera (human), sequence (Q14627 27-343 limits assumed, stated change not applied): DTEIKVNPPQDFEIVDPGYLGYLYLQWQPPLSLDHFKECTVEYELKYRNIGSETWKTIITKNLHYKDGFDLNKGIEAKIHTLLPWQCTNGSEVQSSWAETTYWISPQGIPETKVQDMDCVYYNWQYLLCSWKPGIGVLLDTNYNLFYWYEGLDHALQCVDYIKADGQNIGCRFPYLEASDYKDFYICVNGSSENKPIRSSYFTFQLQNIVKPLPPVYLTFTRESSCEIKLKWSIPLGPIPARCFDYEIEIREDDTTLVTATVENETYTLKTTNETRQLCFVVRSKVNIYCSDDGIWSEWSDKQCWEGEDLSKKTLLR
Pngase F-treated rhIL13Rα2hFc (human), sequence (Q14627 27-343 limits assumed): as the sequence (Q14627 27-343 limits assumed, stated change not applied) above

| Substance | percent decrease of binding against untreated protein [1] | Kd [2] | koff [2] | kon [2] | % positive cells [3] | % positive cells [4] | EC50 (read off the curve) [5] |
| --- | --- | --- | --- | --- | --- | --- | --- |
| mAb to IL13Rα2 (clone 83807) (antibody) | 80% | 104 nM | 0.00231 s⁻¹ | 22300 M⁻¹ s⁻¹ | – | – | – |
| mIgG (antibody) | – | – | – | – | 1.9% | 0.9% | – |
| monoclonal antibody to IL13Rα2 (clone B-D13) | – | 46.1 nM | 0.00499 s⁻¹ | 108000 M⁻¹ s⁻¹ | – | – | 0.2 µg/mL |
